Assay results reported in US20230279130A1.

Assays:
[1] = target: full length human CCR8 (hCCR8) (human) (UniProt P51685); assay: flow cytometry, CD4+Foxp3+ gated cells of human PBMC stimulated with IL-2 (200 U/ml) for 2 days, anti-human IgG Fc against Foxp3
[2] = target: full length human CCR8 (hCCR8) (human) (UniProt P51685); assay: flow cytometry, CD4+Foxp3+ gated cells of resting human PBMC, anti-human IgG Fc against Foxp3
[3] = target: full length human CCR8 (hCCR8) (human) (UniProt P51685); assay: flow cytometry, CD4+Foxp3+ gated cells of OKT-3 stimulated human PBMC, anti-human IgG APC against Foxp3 PE

Row | percent of CD4+Foxp3+ cells in the gate 'Foxp3 ahigG Subset' [1] [%] | percent of CD4+Foxp3+ cells in the gate 'Foxp3 ahigG Subset' [2] [%] | percent of CD4+Foxp3+ cells stained (upper right quadrant) [3] [%] | Substance
1 | 0.36 | 0.11 |  | Anti RSV (antibody)
2 |  |  | 6.23 | anti-DNP (dinitrophenyl) control antibody
